From the DeepSol protein solubility set

Assay: soluble on expression in E. coli; label from the status in PepcDB or PDB records

| Sequence | soluble on expression in E. coli |
| --- | --- |
| QQKILENIRGIGTNTMTIFNGNGFGDRRSRHIQNLKISDANTLSKQSYIQSVTPNTSSSGILVVGNKSFTSANLYGIGEQYFDVEGLKLKQGRLLTEDDVDQSNQVVVLDESAKKAIFANENPLGKTVIFNKRPFRVIGVVSDQQLGGFPGNSLNLYSPYSTVLNKITGGSRIGSITVKISDDVNSTVAEKSLTELLKSLHGKKDFFIMNSDTIKQTIENTTGTMK | soluble |
| QRLKVEDALSYLDQVKLQFGSQPQVYNDFLDIMKEFKSQSIDTPGVISRVSQLFKGHPDLIMGFNTFLPPG | soluble |
| QSATARPMAIALGVAEPAPRGFLLIGANRVAREIGQALARYDRRVLMTDSNWEYISQVRMMGLDYYYGNPISSHADDNLNMIGIGQVVALTPDQHFNIMACMQFVDEFGEDKVHCLQKVKTNGNGSEKHSVAQEYHGKLLMGGNVSYTQLASLLSRGAEIKHTKLSENFTYQDYLEHHKTNLVIPLFNVEDKGKIQFCDDPDQFAPSTTSTIVSLILPESAQ | not soluble |
| QSIVVDMREFRSELPSLIHRRGIDIEPVTLEVGDYILTPEMCVERKSISDLIGSLNNGRLYSQCISMSRYYKRPVLLIEFD | not soluble |
| QTLARVDLAYDDYDGIFDCEYAYKAWRDDCFRTAERGRGPVLHEDMTIASIGKDGKPIYTKEQYSIGSRTSRIYWRIYNKALEQKLANTGLVWYRSEVELKKWNVDVLLNPAGAYAALNDFAASISTAKKFNTKPVPTKRAALDLLASAHWMRRQYGKILNSLIEFHEGDIETVVGSLVRDGTKFTFPDTYG | not soluble |
| QVKPFSFVRDTDPVQLVNFLQSEHPQTIAVVLSYLDPPVAAQILGALPEELQTEVLKRIALLERTSPEVVKEIERNLEKKISGFVSRTFSKVGGIDTAAEIMNNLDRTTEKKIMDKLVQENPELADEIRRRMFVFEDILKLDDRSIQLVLREVDTRDLALALKGASDELKEKIFKNMSKRAAALLKDELEYMGPVRLKDVEEAQQKIINIIRRLEEAGEIVIARGGGEELIM | soluble |
| QVQLKESGPGLVAPSQSLSITCTVSGFSLTDYGVDWVRQPPGKGLEWLGMIWGDGSTDYNSALKSRLSITKDNSKSQVFLKMNSLQTDDTARYYCVRDPADYGNYDYALDYWGQGTSVTVSSAKTTPPSVYPLAPGSAAQTNSMVTLGCLVKGYFPEPVTVTWNSGSLSSGVHTFPAVLQSDLYTLSSSVTVPSSTWPSETVTCNVAHPASSTKVDKKIVPRDCG | soluble |
| QVQLQESGPGLVAPSQSLSITCTVSGFSLTGYGVNWVRQPPGKGLEWLGMIWGDGNTDYNSALKSRLSISKDNSKSQVFLKMNSLHTDDTARYYCARERDFRLDYWGQGTTLTVSS | soluble |
| QVQLQQSGAELVKPGASVRMSCKASGYTFTNYNMYWVKQSPGQGLEWIGIFYPGNGDTSYNQKFKDKATLTADKSSNTAYMQLSSLTSEDSAVYYCARSGGSYRYDGGFDYWGQGTTVTVSS | soluble |
| QVQLVESGGGTVPAGGSLRLSCAASGNTLCTYDMSWYRRAPGKGRDFVSGIDNDGTTTYVDSVAGRFTISQGNAKNTAYLQMDSLKPDDTAMYYCKPSLRYGLPGCPIIPWGQGTQVTVSS | soluble |
| RCGAGEPWGNATNLGVPCLHWDEVPPFLERSPPASWAELRGQPHNFCRSPDGAGRPWCFYRNAQGKVDWGYCDCGQG | soluble |
| REPLSFSLFSQPECVEQPERLAQVFALLVNAHYQTSPNDLFALLQDEAMTLFVAYQGEVCVGCVLAVREGELDAPTIEAIQLGTRRPKGHLTPVTLANQLGISQAARQSCWRILRIAVHPDCQRQGIGSQLLTHFIAQHHADYYATSFGVSEDLLPFWLANHFVPIKLGSHRDQASGCYSLLMVRG | not soluble |
| RGSHHHHHHGSFTPSGTTGTTKLTVTEECQVRVGDLTVAKTRGQLTDAAPIGPVTVQALGCNARQVALKADTDNFEQGKFFLISDNNRDKLYVNIRPMDNSAWTTDNGVFYKNDVGSWGGTIGIYVDGQQTNTPPGNYTLTLTGGYWAK | soluble |
| RKGHFSRCPKQYKHYCIKGRCRFVVAEQTPSCVCDEGYIGARCERVDLFY | soluble |
| RKIFTNKCERAGCRQREMMKLTCERCSRNFCIKHRHPLDHDCSGEGHPTS | soluble |
| RKRPLVLTADRGRGKSSALGIACAQLLQHKPLRILLTAPSINAVEPVYQHAQRLLTDAKQMKKDRLEVGYGYIQFIAPDELLSSLPECDLLLVDEAAAIPVPMLKQITEHYHRLVFSSTIHGYEGCGRGFTLKFIEWLQQQRPGMKTYHMQQPIRWSVDDKLEMWLYDAFILN | not soluble |
| RKYAFEDVFRVGREDVNEMADRILNSLSSYKPRVGCIAFSGGVDSSLLAALYDAPLVSVTASDAEEEWLKTAARMLGKEIEILKVGESAIREVVDTVRKTIETGDFLQLSIAVPVYLTMQFAKSLGFTEIIFGQGADELFGGYKRYEGLSEHELEDALVKDLKSIGESNLVRDCKLAYKNEIKLVTPYLCWDVIDAALKIPPEYKVRREGGKVVRKYILRKIAEKFLPEEIAWRDKKAIQYSTGIAKI | not soluble |
| RLPFMAQYDRLGLTRSNTSCHNNTGKQCLWGDTEKQPELLVLGDSHADHYKTFFDAVGKKEKWSATMVSADACAYVEGYASRVFQNWAACRAVYRYAEEHLPRYSKVVLAMRWGSQMPENSRSLAYDAGFFQKFDRMLHKLSSEKQAVYLMADNLASSYNVQRAYILSSRIPGYRQALRPDDESTLKANARIRELAAKYPNVYIIDAAAYIPADFQIGGLPVYSDKDHINPYGGTELAKRFSEKQRFLDTRHNH | not soluble |
| RPLFAREGGIYAVLVCMQEYKTSVLVQQAGLAALKMLAVASSSEIPTFVTGRDSIHSLFDAQMTREIFASIDSATRPGSESLLLTVPAAVILMLNTEGCSSAARNGLLLLNLLLCNHHTLGDQIITQELRDTLFRHSGIAPRTEPMPTTRTILMMLLNRYSEPPGSPERAALETPIIQGQDGSPELLIRSLVGGPSAELLLDLERVLCREGSPGGAVRPLLKRLQQETQPFLLLLRTLDAPGPNKTLLLSVLRVITRLLDFPEAMVLPWHEVLEPCLNCLSGPSSDSEIVQELTCFLHRLASMHKDYAVVLCCLGAKEILSKVLDKHSAQLLLGCELRDLVTECEKYAQLYSNLTSSILAGCIQMVLGQIEDHRRTHQPINIPFFDVFLRHLCQGSSVEVKEDKCWEKVEVSSNPHRASKLTDHNPKTYWESNGSTGSHYITLHMHRGVLVRQLTLLVASEDSSYMPARVVVFGGDSTSCIGTELNTVNVMPSASRVILLENLNRFWPIIQIRIKRCQQGGIDTRVRGVEVLGPKPTFWPLFREQLCRRTCLFYTIRAQAWSRDIAEDHRRLLQLCPRLNRVLRHEQNFADRFLPDDEAAQALGKTCWEALVSPLVQNITSPDAEGVSALGWLLDQYLEQRETSRNPLSRAASFASRVRRLCHLLVHVEPPPGPSPEPSTRPFSKNSKGRDRSPAPSPVLPSSSLRNITQCWLSVVQEQVSRFLAAAWRAPDFVPRYCKLYEHLQRAGSELFGPRAAFMLALRSGFSGALLQQSFLTAAHMSEQFARYIDQQIQGGLIGGAPGVEMLGQLQRHLEPIMVLSGLELATTFEHFYQHYMADRLLSFGSSWLEGAVLEQIGLCFPNRLPQLMLQSLSTSEELQRQFHLFQLQRLDKLFLEQEDEEEKRLEEEEEEEEEEEAEKELFIEDPSPAISILVLSPRCWPVSPLCYLYHPRKCLPTEFCDALDRFSSFYSQSQNHPVLDMGPHRRLQWTWLGRAELQFGKQILHVSTVQMWLLLKFNQTEEVSVETLLKDSDLSPELLLQALVPLTSGNGPLTLHEGQDFPHGGVLRLHEPGPQRSGEALWLIPPQAYLNVEKDEGRTLEQKRNLLSCLLVRILKAHGEKGLHIDQLVCLVLEAWQKGPNPPGTLGHTVAGGVACTSTDVLSCILHLLGQGYVKRRDDRPQILMYAAPEPMGPCRGQADVPFCGSQSETSKPSPEAVATLASLSCLQAAP | soluble |
| RPVWYGEPVDIQPEHRDMMLVVDLSGSMAEEDMKTSNGDFVDRLTAVKQVVSDFIDQRKGDRLGLVLFGDHAYLQTPLTFDRNTVREQLDRTVLNLVGQRTAIGEGLGLATKTFIESNAPQRTIILLSDGANTAGVLEPLEAAQLAKDNHAKIYTVGIGAGEMQVRGFFGKQTVNTARDLDEDTLTKIATMTGGQYFRARNADELAEIYQTI | not soluble |
| RQEQRRTDHELREQLHFRQALIDAIPAPIYFMDTTGIFLGCNKAFEAFSGHTQDEIVGKTIYDLMPPSLAKHTDSADRELFEHGGIQIYESVISFADGALHDVIFYKATFTTTEKNIGGLVGTILDIT | not soluble |
| RQRTASLIDTNHWLSRIIDLVPHPIFLKDHNGKYLLANIAQGELFGKKPEELLGKTDIDFVYNSDEYVVIKQSDDKVVSTRKTVVLPEQIVTLGDIKYYLYTSKVPLISPVDGELRILGVSINLT | not soluble |
| RREMTSYSDIDLILLHPEGSIPSGLEHFWYPIWDAKIRLDYTVRTPKECADMISAEPTAALALLDISHCSGDPQLTATTRCVVLEQWRRELKKNFNDVTDTAIARWNRSGSVVDMTHPDLKHGRGGLRDIELIRALALGNLCDKRPLGEERQLLLNIRTMLHQHAGRARDVLDPEFAVDVALDLGCEDRYDLSRSLAKAARTIDDATNAALSTARNLLPRRSSVRKAVRRPVDIDVVEVDGTLALSRTPNLEDPSLVLRVAAASARTGMTISESAWKQLETVPSMPPT | not soluble |
| RRYWVVLDGNFEDYLKKFSAKSRNTLLRKIKRFAELSGGEIDWREYCKPEEMHEFYKLAMEVSQKTYQERLLDCGLPSDQQFQENMLALAAEDNVRGYLLFYQKKPIAYIYCPVHDGIALYEYVGHDPEYQRWSPGTLLQYFALQRMFTASHIKIFDFTEGEGAHKAFFATNNQYCADVYYFRR | not soluble |
| RSGKCVGDVIETVDSEEAMGDLKIVLAAIFARKFAGVNGEVTKEYLEGYKMLNIYITNACNLKCKHCFMLSGKKLENELTLEDWMKVLTSFKENGGEFVTFSGGEPLMFKNFPQIISHAHDLGLKSTVLSNGLLWSGKLIHDLALFIDEIQFSLDGVDEETNSMVRGSGHFEKVVDTIVKFANAGVKT | not soluble |
| RSPICHLFSAINSSPFKIAPEKEQDLKTIVDDKKIIISVVSEPGFNIRVRKNESNNSHEIVLTVASLEYIWAFSNFFWVFTQEYSKSQKNNDEHFDLTGKNRLKKSDELLKWARKNLQTTGCESWPKKCPKPEAYLQGSEDSQVASEIFLCAIAWILHHEISHVVLQHPLVTTAFSTQEEREADSHATKWILGNLYESAPELKKRALGIATAVLCIQSLEVENYFCLQNTHPAAYERIYSNISCYPVGNEELIEALCTVMLQYLFHGKNINVNLDGESFSSILGDLLCDISRLTSN | not soluble |
| RTEAGDAYYSKFANNTPLPALMVSRKKFGSSYVYDKSYKTWDVPIAEQMEQKAKINIFAVAEYTDTQKIKVTVKGKILEGNTLPKSMVQVYLLEDKLIAPQVDGNTTVENYEHNHVLRGAVNGIWGEEFVNLKDYLYTYAVEPLSGMSFVAENYSIVAFVYDVQTFEVYDVVHVKINPQSDGK | soluble |
| RTEDLPKAVVFLEPQWYSVLEKDSVTLKCQGAYSPEDNSTQWFHNESLISSQASSYFIDAATVNDSGEYRCQTNLSTLSDPVQLEVHIGWLLLQAPRWVFKEEDPIHLRCHSWKNTALHKVTYLQNGKDRKYFHHNSDFHIPKATLKDSGSYFCRGLVGSKNVSSETVNITITQGL | soluble |
